In US20230257435A1, “Wound Healing Composition and Uses Thereof” (AGENCY FOR SCIENCE, TECHNOLOGY AND RESEARCH, priority 2020, published 2023):

How the values were obtained:
BJ and HaCaT cells = assay: Transwell migration assay; format: cell-based, human; details: sAgrin 10 μg/ml as chemoattractant
Experimental: FIG. 5 are assays showing effects of Agrin knockdown on 2D migration of keratinocytes and dermal fibroblasts. (a) RT-PCR analysis for Agrin gene expression in BJ and HaCaT cells treated with either control or Agrin siRNA. Data presented as mean+/−s.d. These knockdown cells were subsequently used for transwell migration assays. Migration was analyzed for a batch of Agrin depleted cells in response to sAgrin (10 μg/ml) in the bottom chambers as a chemoattractant (third panels). Migrating were quantified using ImageJ and represented as mean+/−s.d. (n=3, Students ‘t’ test, p=0.0004, 0.0003, and 0.0005, respectively). Scale bar: 20 μm. (b) Control, Agrin depleted, and Agrin knockdown BJ or primary mouse dermal fibroblasts (DF) cells pre-treated with 10 μg/ml sAgrin for 18 h were subjected to scratch wound assays. Representative bright-field images showing relative migration are presented at the indicated time-points. The mean non-migrated area+/−s.d. was quantified using ImageJ (n=3, Students ‘t’ test, *p<0.05, **p<0.004, ***p<0.0005, ****p=0.000002, ****p<0.000001, respectively). Scale bar: 20 μm. A Western blot verifying the knockdown of Agrin in DF is also shown with GAPDH as loading control. […] Results are quantified as in panel (b) (n=3, Students ‘t’ test, ****p<0.000001, **p<0.005, *p<0.05, respectively, all other p values are represented in the panels). […]

[1] = test system: phosphorylated myosin light chain (pMLC); assay: Actomyosin cables / pMLC activation after wound scratch; format: cell-based, human
Experimental: Indicated cells post-manipulation were washed twice with cold Phosphate buffered saline (PBS) and lysed with cold 1% NP-40 lysis buffer supplemented with 1× protease inhibitor cocktail (Roche Applied Biosciences) for 15 mins at 4° C. The cell lysate was centrifuged at 13,000 rpm for 15 min. This was followed by protein estimation using Bradford reagent. Subsequently, […] of total protein was mixed with an equal volume of 2× Laemmli sample buffer and heated at 95° C. for 5 mins. This was followed by resolution with SDS-PAGE gel. The resolved proteins were transferred onto nitrocellulose membrane and blocked in 5% skimmed milk reconstituted in 1×PBS containing 0.1% Tween-20, and probed overnight with the respective primary antibody. The membrane was then washed with 1×PBS supplemented with 0.1% Tween-20: three times at 15 min intervals. This was followed by 1 h incubation in conjugated horseradish peroxidase HRP secondary antibody (Santa Cruz Biotechnology). Post-incubation, the blot was again washed three times as above and then overlaid with enhanced chemiluminescence (ECL) substrate (Pierce/Bio-Rad) and visualized on X-ray film by image processor or digitally by Chemidoc analyzer (Bio-Rad). The density of the various bands was quantified using the Image-J software.
Cells were cultured on eight-well chamber slides or coverslips over-night. Cells were then washed twice with PBS and fixed for 15 min with 4% paraformaldehyde. Subsequently, the cells were permeabilized for 15 min with 0.1% Triton X in Phosphate buffered saline containing 1 mM Ca^+2 and 1 mM Mg^+2 (PBSCM) at room temperature. The permeabilized cells were incubated with indicated antibodies in fluorescent dilution buffer (FDB) for 1-2 h at RT or overnight at 4° C., followed by 5 washes with PBSCM and incubation with secondary antibody; Alexa Fluor (Thermo Fisher Scientific) for 1 h at RT. Slides were again washed five times with PBSCM and mounted with Vectashield medium containing DAPI. The stained cells were then imaged by a Zeiss confocal microscope. The images were processed and analyzed by Zen blue software. Intensity measurements were acquired using tool selection parameter in image analysis within the Zen blue software.
A confluent monolayer of control and Agrin depleted cells in a 6-well plate was subjected to a unidirectional scratch using a 20 μl pipette tip. This was followed by washing with 1×PBS at room temperature and incubation in complete culture media at 37° C. and 5% CO2 with or without sAgrin used as indicated. Phase contrast images of the wound area were taken periodically at the indicated time-points. For some wound-healing migration assays, keratinocytes were cultured on either soft or stiff substrates within a stencil barrier (Nalge Nunc., Inc) for 18 h. Upon removal of the barrier, the cells were allowed to migrate and imaged using an Axiovert 200 inverted microscope at indicated time-points.

keratinocytes = assay: BrdU incorporation after wound scratch (leader/follower cells); format: cell-based; details: Agrin knockdown; 10 μg/ml sAgrin 18 h; 4 h post-scratch
Experimental: FIG. 6 Agrin impacts keratinocyte proliferation following wound injury. (a) Control, Agrin depleted indicated keratinocytes and those rescued with 10 μg/ml sAgrin for 18 h were labelled with 20 μM BrdU for 12 hours, before proceeding with wound-scratch assays. The cells were fixed at 4 hours post-scratching and stained with an Anti-BrdU and K17 antibodies. Nuclei were counterstained with DAPI. Representative confocal images at the wound edge (leader) and at-least 200 μm away from the wound margin (followers) are shown. The relative percentage of proliferating cells are shown for each condition graphically (n=5-6 images analyzed for each conditions from three replicates, Students ‘t’ test, **p=0.006, *p-0.003, p=0.005, ***p=0.0001, respectively). Scale bar: 10 μm. (b-c) Schematic showing the states of proliferation at the migrating wound margins. Immunohistological sections stained for Ki67 in control and Agrin depleted wound edges and beds at day 7 post-wounding. Filled arrows denote the base of epidermis (Ep), while arrows represent the wound margin. Asterisk (*) denotes the loss of Ki67 proliferation at the wound margins. Scale bar: 100 μm. The percentage of proliferating cells was quantified using Image J (n=4 sections analyzed from two individual mice, Students ‘t’ tests, **p=0.001).

B1: sAgrin: C-terminus recombinant Agrin fragment containing 8 amino acid 'Z8' insert and LG3 domain (SEQ ID NO: 7), His-tagged, expressed in E. coli (protein)
chain: DTLAFDGRTFVEYLNAVTESELANEIPVEKALQSNHFELSLRTEATQGLVLWSGKATERADYVALAIVDGHLQLSYNLGSQPVVLRSTVPVNTNRWLRVVAHREQREGSLQVGNEAPVTGSSPLGATQLDTDGALWLGGLPELPVGPALPKAYGTGFVGCLRDVVVGRHPLHLLEDAVTKPELRPCPTP
modifications: His tag
In the case of B1, the “trans-well migration (rescue of Agrin knockdown)” value (BJ and HaCaT cells) is reported as “in part, rescued”, the “pMLC recruitment to wound edges” value ([1]; 10 μg/ml sAgrin 18 h) is reported as “strong recruitment of pMLC to wound edges forming stable actomyosin cables” and the “actomyosin cables in Agrin deprived cells” value ([1]; 10 μg/ml sAgrin 18 h, within 4 h post-wounding) is reported as “restored”. For the same molecule, the “actomyosin cable network in MMP12 suppressed cells” value ([1]; MMP12 siRNA, 10 μg/ml sAgrin 18 h) was “did not restore actomyosin cable network”, the “pMLC levels in MMP12 depleted keratinocytes” value ([1]; within 2 h post-wounding) was “unable to rescue the severely diminished pMLC levels” and the “pMLC activation in Agrin depleted cells” value ([1]; within 2 h post-wounding, sAgrin pre-treatment) was “restored”. For the same molecule, the “proliferation of follower cells away from the wound margin” value (keratinocytes) was “rescued”.
